Biological target: T1, RAS G12V (KRAS, HRAS or NRAS) peptide on HLA-DRA*01:01 / HLA-DRB1*01:01 (human)
T1 peptide: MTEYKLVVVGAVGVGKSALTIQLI
Experiment: cytokine release
Description: FIG. 2 is a graph showing IFN-γ secretion (spots/3e4 cells) measured by ELISPOT assay following co-culture of effector cells with target cells. […] Target cells were […] or HEK 293 cells independently transfected with one of the HLA Class II heterodimers shown. The target cells were loaded with the G12V 24-mer peptide and were cultured in the presence or absence of an antibody which blocked the respective HLA Class II molecule previously transfected. Target cells cultured with DMSO served as a negative control.
Reactivity was tested by IFNγ-secretion using ELISpot assay. […] This reactivity was blocked by an antibody which recognized the DRA*01:01/DRB1*01:01 heterodimer.

B1: 4304 TCR1 (TCR, V domains shown)
Valpha: AQRVTQPEKLLSVFKGAPVELKCNYSYSGSPELFWYVQYSRQRLQLLLRHISRESIKGFTADLNKGETSFHLKKPFAQEEDSAMYYCALLQGAQKLVFGQGTRLTINP
Vbeta: SAVISQKPSRDICQRGTSLTIQCQVDSQVTMMFWYRQQPGQSLTLIATANQGSEATYESGFVIDKFPISRPNLTFSTLTVSNMSPEDSSIYLCSVESGQDYGYTFGSGTRLTVV
- binding result: recognises

— patent US20230257440A1 (published 2023)
